Data taken from patent US20030054488A1 (published 2003).
Positions count from the first letter of the chain named. Blank lines part the entries; values can stand above or below the binder they belong to.

Key:
[1] = target: T1, rMBPΔII Ser to Ala mutant in position 8
T1 chain: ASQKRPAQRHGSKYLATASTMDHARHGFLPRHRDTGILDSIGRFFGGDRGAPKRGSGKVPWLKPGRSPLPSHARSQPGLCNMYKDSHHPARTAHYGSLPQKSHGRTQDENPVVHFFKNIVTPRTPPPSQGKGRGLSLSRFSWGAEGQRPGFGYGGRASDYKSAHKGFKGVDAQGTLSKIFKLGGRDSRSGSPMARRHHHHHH

[2] = target: T2, rMBPΔII Ser to Ala mutant in position 57
T2 chain: T1 chain with A7S, S56A

[3] = target: T3, rMBP Ser to Ala mutant in position 8, P02686
T3 chain: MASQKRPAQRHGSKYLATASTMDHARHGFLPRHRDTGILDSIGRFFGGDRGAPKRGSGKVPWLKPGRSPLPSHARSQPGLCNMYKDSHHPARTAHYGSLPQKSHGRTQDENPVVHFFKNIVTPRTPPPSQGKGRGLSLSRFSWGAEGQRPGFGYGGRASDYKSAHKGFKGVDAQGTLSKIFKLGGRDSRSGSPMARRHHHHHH

GPΔIII derived peptide = target: T4, GPΔIII derived peptide
T4 chain: QRAHGQDLDALFVKVLRSP

[4] = target: T5, rMBP Ser to Ala mutant in position 57, P02686
T5 chain: T3 chain with A8S, S57A

GPpep1 Ala9 = target: T6, GPpep1 Ala9
T6 chain: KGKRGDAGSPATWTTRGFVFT

[5] = target: T7, Human recombinant GP antigen (rGP) produced in 293 cells, Q01955
T7 chain: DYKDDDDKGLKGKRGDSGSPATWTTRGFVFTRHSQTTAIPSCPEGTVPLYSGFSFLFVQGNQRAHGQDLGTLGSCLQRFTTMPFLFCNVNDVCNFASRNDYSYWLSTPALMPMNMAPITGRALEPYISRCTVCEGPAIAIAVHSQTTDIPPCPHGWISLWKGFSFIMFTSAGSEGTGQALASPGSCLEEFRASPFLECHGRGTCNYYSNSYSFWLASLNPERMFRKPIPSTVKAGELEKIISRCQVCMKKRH

[6] = target: T8, recombinant 21 kDa myelin basic protein (rMBP), P02686
T8 chain: T3 chain with A8S

GPpep1 = target: T9, GPpep1
T9 chain: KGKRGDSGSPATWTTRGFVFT

[7] = target: T10, native human GP antigen (alpha3(IV)NC1 domain), Q01955
T10 chain: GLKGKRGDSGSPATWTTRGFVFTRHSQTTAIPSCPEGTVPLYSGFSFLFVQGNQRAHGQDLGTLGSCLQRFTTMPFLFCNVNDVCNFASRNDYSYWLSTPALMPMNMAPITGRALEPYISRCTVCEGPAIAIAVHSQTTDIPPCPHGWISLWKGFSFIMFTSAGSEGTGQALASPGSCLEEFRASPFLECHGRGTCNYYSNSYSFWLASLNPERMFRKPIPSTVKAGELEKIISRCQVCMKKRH

[8] = target: T11, recombinant 18.5 kDa myelin basic protein lacking exon II (rMBPΔII)
T11 chain: T1 chain with A7S

[9] = target: the molecule itself; assay: gel filtration HPLC and analytical ultracentrifugation (peak II 220±10 kDa, likely trimers)
Protocol: FIG. 11. rGPBP and rGPBPΔ26 form very active high molecular weight aggregates. About 300 μg of rGPBP (A) or rGPBPΔ26 (B) were subjected to gel filtration HPLC as described under Material and Methods. Vertical arrowheads and numbers respectively indicate the elution profile and molecular mass (kDa) of the molecular weight standards used. Larger aggregates eluted in the void volume (I), and the bulk of the material present in the samples eluted in the fractionation range of the column as a second peak between the 669 and 158 kDa markers (II). Fifteen microliters of the indicated minute fractions were subjected to SDS-PAGE and Coomasie blue staining. Five microliters of the same fractions were in vitro phosphorylated as described in Materials and Methods, and the reaction stopped by boiling in SDS sample buffer. […]
Gel-filtration HPLC. […] The material was eluted from the column at 0.5 ml/min, monitored at 220 nm and minute fractions collected.
rGPBP and rGPBP-26 exist as very active high molecular weight aggregates. Gel filtration analysis of affinity-purified rGPBP or rGPBPΔ26 yielded two chromatographic peaks (I and II), both displaying higher MW than expected for the individual molecular species, as determined by SDS-PAGE studies (89 kDa and 84 kDa, respectively ) (FIG. 11). […] ATP, and analyzed by immunoblot and autoradiography.

[10] = target: T12, HeLa1 beta-galactosidase-derived fusion protein containing the N-terminal 150 residues of GPBP (human, UniProt Q5R6M6 1-150 (Pongo abelii entry)); assay: lambda-gt11 expression library filters overlaid with GPpep1, detected with monoclonal antibody
T12 construct: Expressed from the lambda-gt11 clone on library filters and as a lysogen in E. coli Y1089; also called HeLa1 lambda-gt11 fusion protein; not shown: beta-galactosidase part encoded by the lambda-gt11 vector
T12 sequence: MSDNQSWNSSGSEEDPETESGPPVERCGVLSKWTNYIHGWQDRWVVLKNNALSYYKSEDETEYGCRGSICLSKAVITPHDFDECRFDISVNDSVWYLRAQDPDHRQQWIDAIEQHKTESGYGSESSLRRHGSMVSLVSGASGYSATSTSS
Protocol: Isolation and characterization of cDNA clones encoding human GPBP—Several human λ-gt11 cDNA expression libraries (eye, fetal and adult lung, kidney and HeLa S3, from CLONTECH) were probed for cDNAs encoding proteins interacting with GPpep1. Nitrocellulose filters (Millipore) prepared following standard immunoscreening procedures were blocked and incubated with 1-10 nmoles per ml of GPpep1 at 37° C. Specifically bound GPpep1 was detected using M3/1A monoclonal antibodies (7). A single clone was identified in the HeLa-derived library (HeLa1). Specificity of fusion protein binding was confirmed by similar binding to recombinant eukaryotic human GP antigen. The EcoRI cDNA insert of HeLa1 (0.5-kb) was used to further screen the same library and to isolate overlapping cDNAs. The largest cDNA (2.4-kb) containing the entire cDNA of HeLa1 (n4′) was fully sequenced.

B1: FLAG-tagged recombinant GPBP (rGPBP) (protein)
chain: DYKDDDDKMSDNQSWNSSGSEEDPETESGPPVERCGVLSKWTNYIHGWQDRWVVLKNNALSYYKSEDETEYGCRGSICLSKAVITPHDFDECRFDISVNDSVWYLRAQDPDHRQQWIDAIEQHKTESGYGSESSLRRHGSMVSLVSGASGYSATSTSSFKKGHSLREKLAEMETFRDILCRQVDTLQKYFDACADAVSKDELQRDKVVEDDEDDFPTTRSDGDFLHSTNGNKEKLFPHVTPKGINGIDFKGEAITFKATTAGILATLSHCIELMVKREDSWQKRLDKETEKKRRTEEAYKNAMTELKKKSHFGGPDYEEGPNSLINEEEFFDAVEAALDRQDKIEEQSQSEKVRLHWPTSLPSGDAFSSVGTHRFVQKPYSRSSSMSSIDLVSASDDVHRFSSQVEEMVQNHMTYSLQDVGGDANWQLVVEEGEMKVYRREVEENGIVLDPLKATHAVKGVTGHEVCNYFWNVDVRNDWETTIENFHVVETLADNAIIIYQTHKRVWPASQRDVLYLSVIRKIPALTENDPETWIVCNFSVDHDSAPLNNRCVRAKINVAMICQTLVSPPEGNQEISRDNILCKITYVANVNPGGWAPASVLRAVAKREYPKFLKRFTSYVQEKTAGKPILF
^32P incorporation, in situ phosphorylation of blotted substrate [1]: recombinant Ser to Ala mutants displayed no significant reduction in ^32P incorporation
^32P incorporation, in vitro phosphorylation (native bovine GP antigen): no appreciable ^32P-incorporation was observed in the bovine-derived substrate
^32P incorporation, in situ phosphorylation of blotted substrate [2]: recombinant Ser to Ala mutants displayed no significant reduction in ^32P incorporation
^32P incorporation, in situ phosphorylation of blotted substrate [3]: recombinant Ser to Ala mutants displayed no significant reduction in ^32P incorporation
GPBP autophosphorylation, 5 nmol peptide, Boc chemistry (GPΔIII derived peptide): Boc-based synthetic peptides positively influenced GPBP autophosphorylation
GPBP autophosphorylation, 5 nmol peptide, Fmoc chemistry (GPΔIII derived peptide): Fmoc-based inhibited GPBP autophosphorylation
^32P incorporation, in situ phosphorylation of blotted substrate [4]: recombinant Ser to Ala mutants displayed no significant reduction in ^32P incorporation
^32P incorporation, in vitro phosphorylation (GPpep1 Ala9): The lower ^32P incorporation displayed by GPpep1 Ala^9 when compared with GPpep1
^32P incorporation, in vitro phosphorylation [5]: Affinity-purified rGPBP phosphorylates all human-derived material to a different extent
^32P incorporation, in situ phosphorylation of blotted substrate [6]: GPBP preferentially phosphorylated MBP
^32P incorporation, in vitro phosphorylation (GPpep1): Affinity-purified rGPBP phosphorylates all human-derived material to a different extent
^32P incorporation, in vitro phosphorylation [7]: Affinity-purified rGPBP phosphorylates all human-derived material to a different extent
^32P incorporation, in situ phosphorylation of blotted substrate [8]: little phosphorylation of MBPΔII was observed

B2: FLAG-tagged recombinant GPBP (rGPBP) (enzyme)
chain: B1 chain
modifications: contains phosphoserine, phosphothreonine and phosphotyrosine; positions not given
notes: Expressed in Pichia pastoris (pHIL-FLAG-n4') or in 293 cells (pc-FLAG-n4'); ON-GPBP-54m also encodes an initiation Met and a few residues before the FLAG; also called yeast rGPBP; FLAG-n4'
binding result [9]: binds

binding result [10]: binds
B3: GPpep1 (peptide)
peptide: KGKRGDSGSPATWTTRGFVFT
notes: also called 21-residue peptide representing residues 3-23 of the human GP antigen
